Data reported in patent US20230406921A1 (MABWELL SHANGHAI BIOSCIENCE, published 2023).

Assays:
[1] = molecular target: T1, CD47 on the surface of human red blood cells (human, UniProt Q08722 19-323); assay: FACS, hRBC, 500 nM
T1 construct: whole, on cells; Same protein as m3, on red blood cells; also called hRBC; RBC
Protocol: The difference between the binding of the mutant to CD47 on the surface of tumor cells and CD47 on the surface of red blood cells was evaluated.

[2] = molecular target: T2, recombinant antigen of the extracellular region of CD47 (Sino Biological, Cat: 12283-H08H) (human, UniProt Q08722 19-139); assay: Fortebio BLI
T2 construct: extracellular domain; also called recombinant CD47 extracellular region; CD47 recombinant protein

PD-L1 = PD-L1 (human, UniProt Q9NZQ7 19-239, limits assumed); assay: Fortebio BLI
Chain of PD-L1 (Q9NZQ7 19-239 limits assumed): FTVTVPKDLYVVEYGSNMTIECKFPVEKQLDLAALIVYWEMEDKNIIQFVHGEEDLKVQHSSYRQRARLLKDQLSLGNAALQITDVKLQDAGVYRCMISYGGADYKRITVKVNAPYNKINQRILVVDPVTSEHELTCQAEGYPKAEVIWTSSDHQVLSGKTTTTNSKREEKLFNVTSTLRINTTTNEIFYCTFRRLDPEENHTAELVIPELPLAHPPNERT

[3] = molecular target: T1, CD47 on the surface of human red blood …; assay: FACS, human red blood cells, antibody 1000 nM
Protocol: (§1) In the experiment of analyzing the binding to human red blood cells, the antibody was used at a concentration of 1000 nM; and in the experiment of analyzing the binding to tumor cells, the antibody was used at a concentration of 100 nM.

[4] = molecular target: T3, CD47 on the surface of tumor cells (human, UniProt Q08722 19-323); assay: FACS, SKOV-3 tumor cells (no PD-L1), antibody 100 nM
T3 construct: whole, on cells; Same protein as m4; also called CD47 antigen on the surface of U937 and CCRF cells; SKOV-3
Protocol: as §1

Binder | FACS (MFI) [1] [MFI] | Kd [2] [nM] | koff [2] [s⁻¹] | kon [2] [M⁻¹ s⁻¹] | Kd (PD-L1) [nM] | koff (PD-L1) [s⁻¹] | kon (PD-L1) [M⁻¹ s⁻¹] | Binding to human red blood cells (MFI) [3] [MFI] | Binding to tumor cells (MFI) [4] [MFI]
anti-human CD47/PD-L1 bispecific antibody 2MW1531-m3 (bispecific antibody, Knobs-into-holes with a common light chain) heavy 1: EVQLVQSGAEVKKPGASVKVSCKASGYKFTNYVMSWVRQAPGQRLEWMGYINPYNDAIKYNEKFTGRVTITRDTSASTAYMELSSLRSEDTAVYYCAREGDFYANYGRLGFAYWGQGTLVTVSSASTKGPSVFPLAPCSRSTSESTAALGCLVKDYFPEPVTVSWNSGALTSGVHTFPAVLQSSGLYSLSSVVTVPSSSLGTQTYTCNVDHKPSNTKVDKRVESKYGPPCPPCPAPEFLGGPSVFLFPPKPKDTLMISRTPEVTCVVVDVSQEDPEVQFNWYVDGVEVHNAKTKPREEQYNSTYRVVSVLTVLHQDWLNGKEYKCKVSNKGLPSSIEKTISKAKGQPREPQVYTLPPSQKEMTKNQVSLTCLVKGFYPSDIAVEWESNGQPENNYKTTPPVLDSDGSFFLYSKLTVDKSRWQEGNVFSCSVMHEALHNRYTQKSLSLSLGK heavy 2: EVQLVQSGAEVKKPGATVKISCKVSGFNIKDIYMHWVQQAPGKGLEWMGRIDPANANTKYDPKFQDRVTITADTSTNTAYMELSSLRSEDTAVYYCASGQLGPLGFDYWGQGTTVTVSSASTKGPSVFPLAPCSRSTSESTAALGCLVKDYFPEPVTVSWNSGALTSGVHTFPAVLQSSGLYSLSSVVTVPSSSLGTQTYTCNVDHKPSNTKVDKRVESKYGPPCPPCPAPEFLGGPSVFLFPPKPKDTLMISRTPEVTCVVVDVSQEDPEVQFNWYVDGVEVHNAKTKPREEQYNSTYRVVSVLTVLHQDWLNGKEYKCKVSNKGLPSSIEKTISKAKGQPREPQVYTLPPSQEEMTKNQVSLTCLVKGFYPSDIAVEWESNGQPENNYKTTPPVLDSDGSFFLYSKLTVDKSRWQEGNVFSCSVMHEALHNHYTQESLSLSLGK VL: not shown |  | 65.7 | 0.00769 | 117000 | 1.02 | 0.000163 | 159000 | 955 | 34900
anti-human CD47/PD-L1 bispecific antibody 2MW1531-m10 (bispecific antibody, Knobs-into-holes with a common light chain) heavy 1: EVQLVQSGAEVKKPGASVKVSCKASGYKFTNYVMSWVRQAPGQRLEWMGYINPYNDAIKYNEKFTGRVTITRDTSASTAYMELSSLRSEDTAVYYCAREGDFYANYGRLGFAYWGQGTLVTVSSASTKGPSVFPLAPCSRSTSESTAALGCLVKDYFPEPVTVSWNSGALTSGVHTFPAVLQSSGLYSLSSVVTVPSSSLGTQTYTCNVDHKPSNTKVDKRVESKYGPPCPPCPAPEFLGGPSVFLFPPKPKDTLMISRTPEVTCVVVDVSQEDPEVQFNWYVDGVEVHNAKTKPREEQYNSTYRVVSVLTVLHQDWLNGKEYKCKVSNKGLPSSIEKTISKAKGQPREPQVYTLPPSQKEMTKNQVSLTCLVKGFYPSDIAVEWESNGQPENNYKTTPPVLDSDGSFFLYSKLTVDKSRWQEGNVFSCSVMHEALHNRYTQKSLSLSLGK heavy 2: EVQLVQSGAEVKKPGATVKISCKVSGFNIKDIYMHWVQQAPGKGLEWMGRIDPANANTKYDPKFQDRVTITADTSTNTAYMELSSLRSEDTAVYYCASGQLGPLGFDYWGQGTTVTVSSASTKGPSVFPLAPCSRSTSESTAALGCLVKDYFPEPVTVSWNSGALTSGVHTFPAVLQSSGLYSLSSVVTVPSSSLGTQTYTCNVDHKPSNTKVDKRVESKYGPPCPPCPAPEFLGGPSVFLFPPKPKDTLMISRTPEVTCVVVDVSQEDPEVQFNWYVDGVEVHNAKTKPREEQYNSTYRVVSVLTVLHQDWLNGKEYKCKVSNKGLPSSIEKTISKAKGQPREPQVYTLPPSQEEMTKNQVSLTCLVKGFYPSDIAVEWESNGQPENNYKTTPPVLDSDGSFFLYSKLTVDKSRWQEGNVFSCSVMHEALHNHYTQESLSLSLGK VL: not shown |  | 54.8 | 0.00547 | 99800 | 1.28 | 0.000369 | 288000 | 890 | 26200
anti-human CD47/PD-L1 bispecific antibody 2MW1531-m11 (bispecific antibody, Knobs-into-holes with a common light chain) heavy 1: EVQLVQSGAEVKKPGASVKVSCKASGYKFTNYVMSWVRQAPGQRLEWMGYINPYNDAIKYNEKFTGRVTITRDTSASTAYMELSSLRSEDTAVYYCAREGDFYANYGRLGFAYWGQGTLVTVSSASTKGPSVFPLAPCSRSTSESTAALGCLVKDYFPEPVTVSWNSGALTSGVHTFPAVLQSSGLYSLSSVVTVPSSSLGTQTYTCNVDHKPSNTKVDKRVESKYGPPCPPCPAPEFLGGPSVFLFPPKPKDTLMISRTPEVTCVVVDVSQEDPEVQFNWYVDGVEVHNAKTKPREEQYNSTYRVVSVLTVLHQDWLNGKEYKCKVSNKGLPSSIEKTISKAKGQPREPQVYTLPPSQKEMTKNQVSLTCLVKGFYPSDIAVEWESNGQPENNYKTTPPVLDSDGSFFLYSKLTVDKSRWQEGNVFSCSVMHEALHNRYTQKSLSLSLGK heavy 2: EVQLVQSGAEVKKPGATVKISCKVSGFNIKDIYMHWVQQAPGKGLEWMGRIDPANANTKYDPKFQDRVTITADTSTNTAYMELSSLRSEDTAVYYCASGQLGPLGFDYWGQGTTVTVSSASTKGPSVFPLAPCSRSTSESTAALGCLVKDYFPEPVTVSWNSGALTSGVHTFPAVLQSSGLYSLSSVVTVPSSSLGTQTYTCNVDHKPSNTKVDKRVESKYGPPCPPCPAPEFLGGPSVFLFPPKPKDTLMISRTPEVTCVVVDVSQEDPEVQFNWYVDGVEVHNAKTKPREEQYNSTYRVVSVLTVLHQDWLNGKEYKCKVSNKGLPSSIEKTISKAKGQPREPQVYTLPPSQEEMTKNQVSLTCLVKGFYPSDIAVEWESNGQPENNYKTTPPVLDSDGSFFLYSKLTVDKSRWQEGNVFSCSVMHEALHNHYTQESLSLSLGK VL: not shown |  | 74.9 | 0.00907 | 121000 | 0.784 | 0.000237 | 302000 | 878 | 28900
anti-human CD47/PD-L1 bispecific antibody 2MW1531-m9 (bispecific antibody, human IgG4 S228P, kappa, Knobs-into-holes with a common light chain) heavy 1: EVQLVQSGAEVKKPGASVKVSCKASGYKFTNYVMSWVRQAPGQRLEWMGYINPYNDAIKYNEKFTGRVTITRDTSASTAYMELSSLRSEDTAVYYCAREGDFYANYGRLGFAYWGQGTLVTVSSASTKGPSVFPLAPCSRSTSESTAALGCLVKDYFPEPVTVSWNSGALTSGVHTFPAVLQSSGLYSLSSVVTVPSSSLGTQTYTCNVDHKPSNTKVDKRVESKYGPPCPPCPAPEFLGGPSVFLFPPKPKDTLMISRTPEVTCVVVDVSQEDPEVQFNWYVDGVEVHNAKTKPREEQYNSTYRVVSVLTVLHQDWLNGKEYKCKVSNKGLPSSIEKTISKAKGQPREPQVYTLPPSQKEMTKNQVSLTCLVKGFYPSDIAVEWESNGQPENNYKTTPPVLDSDGSFFLYSKLTVDKSRWQEGNVFSCSVMHEALHNRYTQKSLSLSLGK heavy 2: EVQLVQSGAEVKKPGATVKISCKVSGFNIKDIYMHWVQQAPGKGLEWMGRIDPANANTKYDPKFQDRVTITADTSTNTAYMELSSLRSEDTAVYYCASGQLGPLGFDYWGQGTTVTVSSASTKGPSVFPLAPCSRSTSESTAALGCLVKDYFPEPVTVSWNSGALTSGVHTFPAVLQSSGLYSLSSVVTVPSSSLGTQTYTCNVDHKPSNTKVDKRVESKYGPPCPPCPAPEFLGGPSVFLFPPKPKDTLMISRTPEVTCVVVDVSQEDPEVQFNWYVDGVEVHNAKTKPREEQYNSTYRVVSVLTVLHQDWLNGKEYKCKVSNKGLPSSIEKTISKAKGQPREPQVYTLPPSQEEMTKNQVSLTCLVKGFYPSDIAVEWESNGQPENNYKTTPPVLDSDGSFFLYSKLTVDKSRWQEGNVFSCSVMHEALHNHYTQESLSLSLGK VL: DIQMTQSPSSLSASVGDRVTITCRASQDISNYLNWYQQKPGKAPKLLLYYTSRLHSGVPSRFSGSGSGTDYTLTISSLQPEDFATYFCQQGDTFPYTFGGGTKVEIKRTVAAPSVFIFPPSDEQLKSGTASVVCLLNNFYPREAKVQWKVDNALQSGNSQESVTEQDSKDSTYSLSSTLTLSKADYEKHKVYACEVTHQGLSSPVTKSFNRGEC |  | 79.6 | 0.00947 | 119000 | 0.706 | 0.000272 | 385000 | 781 | 37800

Results, then the binder that gave them:

FACS (MFI) [1] [MFI] | Kd [2] [nM] | koff [2] [s⁻¹] | kon [2] [M⁻¹ s⁻¹] | Kd (PD-L1) [nM] | koff (PD-L1) [s⁻¹] | kon (PD-L1) [M⁻¹ s⁻¹] | Binding to human red blood cells (MFI) [3] [MFI] | Binding to tumor cells (MFI) [4] [MFI] | Binder
28700 |  |  |  |  |  |  |  |  | h140Hm13/h140Lm1 (antibody, V domains shown, also called h140Lml) VH: EVQLVQSGAEVKKPGASVKVSCKASGYKFTNYVMSWVRQAPGQRLEWMGYINPYNDAIKYNEKFTGRVTITRDTSASTAYMELSSLRSEDTAVYYCAREGDFYANYGRLGFAYWGQGTLVTVSS VL: DIQMTQSPSSLSASVGDRVTITCRASQDISNYLNWYQQKPGKAPKLLIYYTSRLHSGVPSRFSGSGSGTDYTFTISSLQPEDIATYFCQQGDTFPRTFGGGTKVEIK
 | 107 | 0.00937 | 87900 | 0.546 | 0.000134 | 245000 | 763 | 28200 | anti-human CD47/PD-L1 bispecific antibody 2MW1531-m8 (bispecific antibody, Knobs-into-holes with a common light chain) heavy 1: EVQLVQSGAEVKKPGASVKVSCKASGYKFTNYVMSWVRQAPGQRLEWMGYINPYNDAIKYNEKFTGRVTITRDTSASTAYMELSSLRSEDTAVYYCAREGDFYANYGRLGFAYWGQGTLVTVSSASTKGPSVFPLAPCSRSTSESTAALGCLVKDYFPEPVTVSWNSGALTSGVHTFPAVLQSSGLYSLSSVVTVPSSSLGTQTYTCNVDHKPSNTKVDKRVESKYGPPCPPCPAPEFLGGPSVFLFPPKPKDTLMISRTPEVTCVVVDVSQEDPEVQFNWYVDGVEVHNAKTKPREEQYNSTYRVVSVLTVLHQDWLNGKEYKCKVSNKGLPSSIEKTISKAKGQPREPQVYTLPPSQKEMTKNQVSLTCLVKGFYPSDIAVEWESNGQPENNYKTTPPVLDSDGSFFLYSKLTVDKSRWQEGNVFSCSVMHEALHNRYTQKSLSLSLGK heavy 2: EVQLVQSGAEVKKPGATVKISCKVSGFNIKDIYMHWVQQAPGKGLEWMGRIDPANANTKYDPKFQDRVTITADTSTNTAYMELSSLRSEDTAVYYCASGQLGPLGFDYWGQGTTVTVSSASTKGPSVFPLAPCSRSTSESTAALGCLVKDYFPEPVTVSWNSGALTSGVHTFPAVLQSSGLYSLSSVVTVPSSSLGTQTYTCNVDHKPSNTKVDKRVESKYGPPCPPCPAPEFLGGPSVFLFPPKPKDTLMISRTPEVTCVVVDVSQEDPEVQFNWYVDGVEVHNAKTKPREEQYNSTYRVVSVLTVLHQDWLNGKEYKCKVSNKGLPSSIEKTISKAKGQPREPQVYTLPPSQEEMTKNQVSLTCLVKGFYPSDIAVEWESNGQPENNYKTTPPVLDSDGSFFLYSKLTVDKSRWQEGNVFSCSVMHEALHNHYTQESLSLSLGK VL: DIQMTQSPSSLSASVGDRVTITCRASQDISNYLNWYQQKPGKAPKLLLYYTSRLHSGVPSRFSGSGSGTDYTLTISSLQPEDFATYFCQQGAGRPRTFGGGTKVEIKRTVAAPSVFIFPPSDEQLKSGTASVVCLLNNFYPREAKVQWKVDNALQSGNSQESVTEQDSKDSTYSLSSTLTLSKADYEKHKVYACEVTHQGLSSPVTKSFNRGEC
